Data taken from PMC12392869 (Advanced Materials (Deerfield Beach, Fla.), 2025).

Molecular target: T1, integrin α5β1 on cells (human (endogenous in K562 and MCF10A), UniProt P08648 42-1049; P05556 21-798)
T1 construct: integrin α5 subunit, endogenous; integrin β1 subunit, endogenous; also called intact α5β1; cellular α5β1; source: endogenous, on K562 cells (flow cytometry) and on MCF10A Cas-mScarlet cells (TIRF microscopy)
Test: flow cytometry on cells; competition: unlabelled competitor titrated against 5 nM CF647-NeoNectin on K562 cells, L15 medium with 1% BSA, 2 h at room temperature; KD = EC50/(1 + CL/KD,L)
Conditions: one partner purified

T1 sequence (P08648 42-1049, chain 1 of 2): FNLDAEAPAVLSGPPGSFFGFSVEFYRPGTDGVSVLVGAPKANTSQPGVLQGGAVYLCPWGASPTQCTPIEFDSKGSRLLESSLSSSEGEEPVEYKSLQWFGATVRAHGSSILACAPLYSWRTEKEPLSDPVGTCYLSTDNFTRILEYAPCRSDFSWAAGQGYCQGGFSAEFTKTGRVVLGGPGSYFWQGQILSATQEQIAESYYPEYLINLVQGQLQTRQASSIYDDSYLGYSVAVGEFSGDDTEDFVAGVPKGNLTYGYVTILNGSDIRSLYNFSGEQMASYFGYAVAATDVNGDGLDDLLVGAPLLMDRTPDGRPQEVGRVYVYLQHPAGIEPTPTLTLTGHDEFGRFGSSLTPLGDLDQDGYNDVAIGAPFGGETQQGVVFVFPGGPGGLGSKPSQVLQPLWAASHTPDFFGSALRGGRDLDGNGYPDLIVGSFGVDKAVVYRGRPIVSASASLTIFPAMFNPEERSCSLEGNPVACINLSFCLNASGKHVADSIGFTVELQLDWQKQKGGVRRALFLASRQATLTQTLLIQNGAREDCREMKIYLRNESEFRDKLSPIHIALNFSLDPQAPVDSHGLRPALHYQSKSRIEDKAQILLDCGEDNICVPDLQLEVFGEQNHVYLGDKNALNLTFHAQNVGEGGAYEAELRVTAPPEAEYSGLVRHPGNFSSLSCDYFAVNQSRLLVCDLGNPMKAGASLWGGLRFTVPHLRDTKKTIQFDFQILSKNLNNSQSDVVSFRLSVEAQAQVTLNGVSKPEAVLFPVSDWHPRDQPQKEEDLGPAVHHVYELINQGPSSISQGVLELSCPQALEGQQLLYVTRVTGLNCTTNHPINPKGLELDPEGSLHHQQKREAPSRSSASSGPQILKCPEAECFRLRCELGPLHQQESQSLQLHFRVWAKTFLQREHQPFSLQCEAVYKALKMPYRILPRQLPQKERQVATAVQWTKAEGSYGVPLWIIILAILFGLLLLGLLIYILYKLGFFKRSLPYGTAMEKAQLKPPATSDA
T1 sequence (P05556 21-798, chain 2 of 2): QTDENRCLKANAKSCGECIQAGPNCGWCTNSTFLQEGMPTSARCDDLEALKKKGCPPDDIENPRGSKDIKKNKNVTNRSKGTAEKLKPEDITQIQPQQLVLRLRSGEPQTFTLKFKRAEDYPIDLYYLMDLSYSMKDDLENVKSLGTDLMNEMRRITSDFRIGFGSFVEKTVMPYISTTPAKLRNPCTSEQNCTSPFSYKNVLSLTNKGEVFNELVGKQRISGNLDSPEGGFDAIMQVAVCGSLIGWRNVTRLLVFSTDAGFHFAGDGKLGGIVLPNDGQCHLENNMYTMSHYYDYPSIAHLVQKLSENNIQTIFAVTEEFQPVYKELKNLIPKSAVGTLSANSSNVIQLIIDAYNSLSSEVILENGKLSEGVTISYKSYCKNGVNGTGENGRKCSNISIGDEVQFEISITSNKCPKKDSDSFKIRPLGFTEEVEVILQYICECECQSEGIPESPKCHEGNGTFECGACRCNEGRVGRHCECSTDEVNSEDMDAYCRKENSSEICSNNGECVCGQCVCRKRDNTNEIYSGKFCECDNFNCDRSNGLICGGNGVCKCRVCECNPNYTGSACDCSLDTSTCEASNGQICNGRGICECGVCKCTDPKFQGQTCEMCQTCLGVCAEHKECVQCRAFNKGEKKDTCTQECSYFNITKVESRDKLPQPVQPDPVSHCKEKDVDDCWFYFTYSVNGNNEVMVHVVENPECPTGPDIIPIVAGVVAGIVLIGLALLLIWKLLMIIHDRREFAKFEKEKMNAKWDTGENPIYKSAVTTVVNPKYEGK

Kd: 150 µM
Binder: GRRGDGATGH (source: synthetic peptide) [RGD peptide (GRRGDGATGH)]
